Reference: patent US20050182242A1, “Global analysis of protein activities using proteome chips” (priority 2001, published 2005)

Key:
Settings in all cases: liposome binding signal on yeast proteome chip, Cy3-streptavidin detection
PI(3,4)P2 liposomes = assay: Yeast proteome chip probed with PI(3,4)P2 liposomes
[1] = system: phosphatidylcholine (PC) liposomes; assay: Yeast proteome chip probed with PC liposomes
Procedure, shortened: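 Binding of arrayed yeast proteins to sonicated PC liposomes, with or without 5% (w/w) phosphoinositide, is scored by streptavidin fluorescence on the biotinylated lipid tracer.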

PI(3)P liposomes = assay: Yeast proteome chip probed with PI(3)P liposomes
Source text: To identify PI-binding proteins in yeast, liposomes were used as probes because the liposome provides the most relevant physiological condition to assay the interactors. Six types of liposomes were used. Each contains phosphatidylcholine (“PC”) with 1% (w/w) N-(biotinoyl)-1,2-dihexadecanoyl-sn-glycero-3-phosphoethanolamine, triethylammonium salt (biotin DHPE). The biotinylated lipid serves as a label that can be detected by Cy3-streptavidin (21). In addition to PC, the five other liposomes contain either 5% (w/w) PI(3)P, PI(4)P, PI(3,4)P2, PI(4,5)P2, or PI(3,4,5)P3 (FIG. 3A).
The protein-liposome interaction was assayed as follows. Appropriate amounts of each lipid in chloroform were mixed and dried under nitrogen. The lipid mixture was resuspended in TBS buffer by vortexing. The liposomes were created by sonication. Blocked proteome chips were washed three to five times in PBS buffer, and the extra liquid on the glass surface was removed by tapping the slides vertically on a KIMWIPE™. 200 μl of liposome solution was added to the proteome chip and immediately covered by a hydrophobic plastic cover slip (GRACE BIO-LAB™, USA). After trapped air bubbles were removed, the chip was incubated in a humidity chamber at RT for one hour. To remove the cover slip, the chip was immersed into large volume of PBS buffer (50 ml), so that the slip would float away. The chip was then moved to a second PBS bath (>50 ml) and washed 3×5 min with shaking at RT. After removing extra liquid on the surface of the chip, about 100 μl of Cy3 or Cy5 conjugated streptavidin (PIERCE™, USA; 1:2000 to 1:4000 dilution) was added to the surface and covered by a hydrophobic plastic cover slip (GRACE BIO-LABS™, USA). The chip was incubated for greater than 30 min in the dark at RT. The chip was then washed as described above. To completely remove the liquid on the chip, the chip was spun to dryness at 1500-2000 rpm for 5-10 min at RT.
• 1. S. Fields, Y. Kohara, D. J. Lockhart, Proc. Natl. Acad. Sci. 96, 8825 (1999); A. Goffeau et al., Science 274, 563 (1996). • 2 P. Ross-Macdonald et al., Nature 402, 413 (1999); J. L., DeRisi, V. R. Iyer, P. O. Brown, Science 278, 680 (1997); E. A. Winzeler et al., Science 285, 901 (1999). P. Uetz et al., Nature 403, 623 (2000); T. Ito et al., Proc. Natl. Acad. Sci. USA. 97, 1143 (2000) • 3 H. Zhu, M. Snyder, Curr. Opin. Chem. Biol. 5, 40 (2001). • 4 M. R. Martzen et al., Science 286, 1153 (1999). • 5 H. Zhu et al., Nat. Genet. 26, 283 (2000). • 6 G. MacBeath, S. L. Schreiber, Science 289, 1760 (2000). • 7 A. Caveman, J. Cell Sci. 113, 3543 (2000). • 8 P. Arenkov et al., Anal. Biochem 278, 123 (2000). • 9 D. A. Mitchell, T. K. Marshall, R. J. Deschenes, Yeast 9, 715 (1993). The expression vector pEGH was created by inserting an RGS-HisX6 epitope tag between the GST gene and the polycloning site of pEG(KG). The yeast ORFs were cloned using the strategy described previously (5), except every step was done in a 96-well format. Plasmid DNAs confirmed by DNA sequencing were reintroduced into both yeast (Y258) and E. coli (DH5a). […] 0.1 mM calcium was present in buffers in all subsequent steps. The chip was washed three times with PBS at RT. Cy3-conjugated streptavidin (Jackson IR, USA) (1:5000 dilution) was added to the chip and incubated for 30 min at RT. After extensive washing, the chip was spun dry and scanned using a microarray scanner; the data was subsequently acquired with the GENEPIX™ array densitometry software (Axon, USA). • 12 S. S. Hook, A. R. Means, Annu. Rev. Pharmacol. Toxicol.41, 471 (2001). • 13 M. S. Cyert, R. Kunisawa, D. Kaim, J. Thorner, Proc. Natl. Acad. Sci. USA 88, 7376 (1991). • 14 D. A. Stirling, K. A. Welch, M. J. Stark, EMBO J. 13, 4329 (1994). • 15 F. Bohl, Kruse, EMBO J. 19, 5514 (2000); E. Bertrand et al., Mol. Cell 2, 437 (1998). • 16 D. C. Winter, E. Y. Choe, R. Li, Proc. Nat. Acad Sci. USA 96, 7288 (1999). • 17 C.

PI(4,5)P2 liposomes = assay: Yeast proteome chip probed with PI(4,5)P2 liposomes
PI(3,4,5)P3 liposomes = assay: Yeast proteome chip probed with PI(3,4,5)P3 liposomes
PI(4)P liposomes = assay: Yeast proteome chip probed with PI(4)P liposomes

Row | Molecule | PI(3, 4)P2 (PI(3,4)P2 liposomes) | PC [1] | PI(3)P (PI(3)P liposomes) | PI(4, 5)P2 (PI(4,5)P2 liposomes) | PI(3, 4, 5)P3 (PI(3,4,5)P3 liposomes) | PI(4)P (PI(4)P liposomes)
1 | APG7: yeast GST-HisX6 fusion protein on proteome chip (protein, UniProt P38862 1-630, looked up, GST-His6 tag, yeast GST-HisX6 fusion protein on proteome chip) Ubiquitin-like …: MSSERVLSYAPAFKSFLDTSFFQELSRLKLDVLKLDSTCQPLTVNLDLHNIPKSADQVPLFLTNRSFEKHNNKRTNEVPLQGSIFNFNVLDEFKNLDKQLFLHQRALECWEDGIKDINKCVSFVIISFADLKKYRFYYWLGVPCFQRPSSTVLHVRPEPSLKGLFSKCQKWFDVNYSKWVCILDADDEIVNYDKCIIRKTKVLAIRDTSTMENVPSALTKNFLSVLQYDVPDLIDFKLLIIRQNEGSFALNATFASIDPQSSSSNPDMKVSGWERNVQGKLAPRVVDLSSLLDPLKIADQSVDLNLKLMKWRILPDLNLDIIKNTKVLLLGAGTLGCYVSRALIAWGVRKITFVDNGTVSYSNPVRQALYNFEDCGKPKAELAAASLKRIFPLMDATGVKLSIPMIGHKLVNEEAQHKDFDRLRALIKEHDIIFLLVDSRESRWLPSLLSNIENKTVINAALGFDSYLVMRHGNRDEQSSKQLGCYFCHDVVAPTDSLTDRTLDQMCTVTRPGVAMMASSLAVELMTSLLQTKYSGSETTVLGDIPHQIRGFLHNFSILKLETPAYEHCPACSPKVIEAFTDLGWEFVKKALEHPLYLEEISGLSVIKQEVERLGNDVFEWEDDESDEIA | −0.63 | 5.87 | −22.50 | 59.23 | 0.45 | 18.29
2 | YLR020C: yeast GST-HisX6 fusion protein on proteome chip (protein, UniProt Q07950 1-538, looked up, GST-His6 tag, yeast GST-HisX6 fusion protein on proteome chip) Sterol esterase 2: MVNKVVDEVQRLVSAIILTSFMTGLFILSLWKNYVTVHFQHKNDPRDTRSSRTKIQPNDKKKKRPARHSRPLSISSTTPLDLQRDQENNIEYDRTVTSKLSMTSNASLSENGDGNANIKMETNVNQAPYAAENPFQNIALAEDTKLVPDLKYYYKEYGIDIEEFEVETDDGFIIDLWHFKSRLNDGVEEVKREPILLLHGLLQSCGAFASSGRKSLAYFLYESGFDVWLGNNRCGLNAKWNMKKLGNDHSKKWDWDMHQMVQYDLKALINYVLDSTGYAKLSLVAHSQGTTQGFMGLVNGEKLYASDFKLVDKLENFVALAPAVYPGPLLDEKAFVRLMAKGIDSPWYFGRRSFIPLMMTMRKLMVGTKIFSFLSYIMFNYLFDWNDVLWDRVLRDRNFLFSPVHISVKLMQWWLSPLPNKLSFKKGAEKIFPDKKTWFPIAKNDDDSGNNLDNNKLHLNPKRQNSEEFPHIIMFIPKQDRLVDGERLINHFINHEANAVYKIWYIDEYSHLDVLWAHDVIDRIGKPMIENLRFPNAR | 2.67 | 7.34 | 3.75 | 15.68 | 1.24 | −5.66
3 | URA8: yeast GST-HisX6 fusion protein on proteome chip (protein, UniProt P38627 1-578, looked up, GST-His6 tag, yeast GST-HisX6 fusion protein on proteome chip) CTP synthase 2: MKYVVVSGGVISGIGKGVLASSTGMLLKTLGLKVTSIKIDPYMNIDAGTMSPLEHGECFVLDDGGETDLDLGNYERYLGITLSRDHNITTGKIYSHVISRERRGDYLGKTVQIVPHLTNAIQDWIQRVSKIPVDDTGLEPDVCIIELGGTVGDIESAPFVEALRQFQFEVGRENFALIHVSLVPVIHGEQKTKPTQAAIKDLRSLGLIPDMIACRCSEELNRSTIDKIAMFCHVGPEQVVNVHDVNSTYHVPLLLLKQHMIDYLHSRLKLGEVPLTLEDKERGSQLLTNWENMTKNLDDSDDVVKIALVGKYTNLKDSYLSVTKSLEHASMKCRRQLEILWVEASNLEPETQEVDKNKFHDSWNKLSSADGILVPGGFGTRGIEGMILAAKWARESGVPFLGVCLGLQVAAIEFARNVIGRPNSSSTEFLDETLLAPEDQVVIYMPEIDKEHMGGTMRLGLRPTIFQPNSEWSNIRKLYGEVNEVHERHRHRYEINPKIVNDMESRGFIFVGKDETGQRCEIFELKGHPYYVGTQYHPEYTSKVLEPSRPFWGLVAAASGTLGEVIKDINLSEGNENE | −2.83 | 20.25 | 11.50 | 23.95 | 42.86 | 34.40
4 | MAG1: yeast GST-HisX6 fusion protein on proteome chip (protein, UniProt P22134 1-296, looked up, GST-His6 tag, yeast GST-HisX6 fusion protein on proteome chip) DNA-3-methyladenine …: MKLKREYDELIKADAVKEIAKELGSRPLEVALPEKYIARHEEKFNMACEHILEKDPSLFPILKNNEFTLYLKETQVPNTLEDYFIRLASTILSQQISGQAAESIKARVVSLYGGAFPDYKILFEDFKDPAKCAEIAKCGLSKRKMIYLESLAVYFTEKYKDIEKLFGQKDNDEEVIESLVTNVKGIGPWSAKMFLISGLKRMDVFAPEDLGIARGFSKYLSDKPELEKELMRERKVVKKSKIKHKKYNWKIYDDDIMEKCSETFSPYRSVFMFILWRLASTNTDAMMKAEENFVKS | −2.20 | 10.86 | 6.50 | 5.23 | 29.02 | 21.34
5 | KSS1: yeast GST-HisX6 fusion protein on proteome chip (protein, UniProt P14681 1-368, looked up, GST-His6 tag, yeast GST-HisX6 fusion protein on proteome chip) Mitogen-activated protein …: MARTITFDIPSQYKLVDLIGEGAYGTVCSAIHKPSGIKVAIKKIQPFSKKLFVTRTIREIKLLRYFHEHENIISILDKVRPVSIDKLNAVYLVEELMETDLQKVINNQNSGFSTLSDDHVQYFTYQILRALKSIHSAQVIHRDIKPSNLLLNSNCDLKVCDFGLARCLASSSDSRETLVGFMTEYVATRWYRAPEIMLTFQEYTTAMDIWSCGCILAEMVSGKPLFPGRDYHHQLWLILEVLGTPSFEDFNQIKSKRAKEYIANLPMRPPLPWETVWSKTDLNPDMIDLLDKMLQFNPDKRISAAEALRHPYLAMYHDPSDEPEYPPLNLDDEFWKLDNKIMRPEEEEEVPIEMLKDMLYDELMKTME | 87.91 | 16.43 | −11.50 | −2.61 | 0.23 | 10.45
